Where no end group is shown, it is not given here. The star is where a group is joined. DTPA = O=C(O)CN(CCN(CC(=O)O)CC(=O)O)CCN(CC(=O)O)CC(=O)*
T1: RXFP1 F54A (Homo sapiens, UniProt Q9HBX9, F76A)
T1 construct: cells expressing full-length RXFP1 and mutants; expressed in transfected cells; host or cells: HEK293T
T1 sequence (Q9HBX9 23-757 F76A limits assumed): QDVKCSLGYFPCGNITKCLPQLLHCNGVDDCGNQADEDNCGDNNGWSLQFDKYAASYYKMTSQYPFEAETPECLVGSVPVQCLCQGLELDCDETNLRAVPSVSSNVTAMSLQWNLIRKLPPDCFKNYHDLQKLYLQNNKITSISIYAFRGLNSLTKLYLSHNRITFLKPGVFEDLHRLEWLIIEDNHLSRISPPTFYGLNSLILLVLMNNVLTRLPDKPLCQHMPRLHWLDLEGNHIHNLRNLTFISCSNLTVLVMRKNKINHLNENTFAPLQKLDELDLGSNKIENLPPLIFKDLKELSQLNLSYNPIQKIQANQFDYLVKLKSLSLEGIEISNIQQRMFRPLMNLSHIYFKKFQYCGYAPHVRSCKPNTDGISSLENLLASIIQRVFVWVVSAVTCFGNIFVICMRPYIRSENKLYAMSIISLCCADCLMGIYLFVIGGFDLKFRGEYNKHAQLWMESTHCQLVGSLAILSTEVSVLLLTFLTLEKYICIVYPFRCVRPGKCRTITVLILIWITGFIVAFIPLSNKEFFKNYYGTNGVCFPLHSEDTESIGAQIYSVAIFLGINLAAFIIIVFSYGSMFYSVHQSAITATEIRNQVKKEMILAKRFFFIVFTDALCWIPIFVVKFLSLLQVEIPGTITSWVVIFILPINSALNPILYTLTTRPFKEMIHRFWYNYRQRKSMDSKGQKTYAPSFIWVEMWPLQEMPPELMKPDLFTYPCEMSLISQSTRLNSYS

B1: Europium-labelled H2 relaxin (ligand, human)
chain 1: {DTPA}-QLYSALANKCCHVGCTKRSLARFC
chain 2: DSWMEEVIKLCGRELVRAQIAICGMSTWS
modifications: not fully specified; ends and bridges not checked; also: DTPA cage loaded with Eu^3+
notes: A chain of human gene-2 (H2) relaxin; numbers count on: the A chain; B chain of human gene-2 (H2) relaxin; numbers count on: the B chain; also called Eu-H2 relaxin; Eu-H2

Columns and labels:
[1] = target: T1, RXFP1 F54A; test: Eu-H2 relaxin saturation binding assay, transfected HEK293T cells; settings: F54A-RXFP1 versus wild-type RXFP1
[2] = target: RXFP1 A55L, full length (human); test: europium-labelled ligand saturation binding on cells (time-resolved fluorescence); HEK293T cells transiently transfected with receptor, 96-well plates; increasing Eu-H2 relaxin (maximum 15 nM) with or without 1 μM unlabelled H2 relaxin, 1 h, room temperature; 20 mM HEPES pH 7.5, […] CaCl2, 50 mM NaCl, 0.01% NaN3, 1% BSA; one-site fit
[3] = target: RXFP1 D42A, full length (human); test: as above
[4] = target: RXFP1 M60A, full length (human); test: as above
[5] = target: RXFP1 F54A/Y58A, full length (human); test: as above
[6] = target: RXFP1 T61A, full length (human); test: as above
[7] = target: RXFP1 A55S, full length (human); test: as above
[8] = target: RXFP1 N43A/N44A, full length (human); test: as above
[9] = target: RXFP1 F50A^ins, full length (human); test: as above
[10] = target: RXFP1 W46A, full length (human); test: as above
[11] = target: RXFP1 S47A/L48A, full length (human); test: as above
[12] = target: RXFP1 C40A^ins, full length (human); test: as above

| Molecule | loss in H2 relaxin binding [1] | Kd [2] | Kd [3] | Kd [4] | Kd [5] | Kd [6] | Kd [7] | Kd [8] | Kd [9] | Kd [10] | Kd [11] | Kd [12] |
| --- | --- | --- | --- | --- | --- | --- | --- | --- | --- | --- | --- | --- |
| H2 relaxin: two-chain 6-kDa peptide hormone structurally related to insulin; recombinant human gene-2 H2 relaxin provided by Corthera | fourfold | – | – | – | – | – | – | – | – | – | – | – |
| B1 | – | 1.54 nM | 20.7 nM | 1.08 nM | 6.51 nM | 0.69 nM | 0.8 nM | 3.28 nM | 16.7 nM | 12.3 nM | 0.43 nM | 3.92 nM |

Source: PMC4837482, “The complex binding mode of the peptide hormone H2 relaxin to its receptor RXFP1” (Nature Communications, 2016)
